# Source: patent publication US20240166767A1 (SCIRHOM, published 2024)
# Positions count from the first letter of the chain named.
# T1: human iRhom1 full length wild type C-terminally tagged with 3 consecutive copies of the T7 epitope (human, UniProt Q96CC6 1-855)
# T1 construct: also called hiR1-FL-WT-T7; human iRhom1 variant
# T1 sequence: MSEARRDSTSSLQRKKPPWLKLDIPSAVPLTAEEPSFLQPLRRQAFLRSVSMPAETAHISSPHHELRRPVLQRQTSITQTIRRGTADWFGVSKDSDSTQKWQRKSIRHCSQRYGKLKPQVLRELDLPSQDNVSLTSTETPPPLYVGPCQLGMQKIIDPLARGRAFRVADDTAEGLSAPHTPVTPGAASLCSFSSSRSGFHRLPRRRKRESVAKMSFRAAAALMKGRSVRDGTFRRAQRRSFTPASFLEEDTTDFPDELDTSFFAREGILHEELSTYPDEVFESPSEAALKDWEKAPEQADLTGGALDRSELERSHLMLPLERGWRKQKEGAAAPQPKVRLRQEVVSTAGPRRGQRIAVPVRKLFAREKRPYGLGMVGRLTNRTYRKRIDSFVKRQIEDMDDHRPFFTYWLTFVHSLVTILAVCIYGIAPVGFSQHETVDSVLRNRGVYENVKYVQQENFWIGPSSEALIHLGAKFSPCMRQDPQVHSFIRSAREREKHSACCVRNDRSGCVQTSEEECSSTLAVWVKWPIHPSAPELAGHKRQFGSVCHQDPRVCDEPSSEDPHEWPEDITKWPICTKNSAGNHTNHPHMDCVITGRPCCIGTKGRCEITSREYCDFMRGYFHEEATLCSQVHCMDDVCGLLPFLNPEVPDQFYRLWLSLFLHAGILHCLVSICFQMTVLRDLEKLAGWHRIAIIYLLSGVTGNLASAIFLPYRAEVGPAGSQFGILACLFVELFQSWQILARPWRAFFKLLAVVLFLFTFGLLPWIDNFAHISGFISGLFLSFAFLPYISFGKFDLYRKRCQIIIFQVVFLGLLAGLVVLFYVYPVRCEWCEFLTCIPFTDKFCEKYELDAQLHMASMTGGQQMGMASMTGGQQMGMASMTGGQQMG
# T2: human iRhom2 full length wild type C-terminally tagged with 3 consecutive copies of the T7 epitope (UniProt Q6PJF5 1-856)
# T2 chain: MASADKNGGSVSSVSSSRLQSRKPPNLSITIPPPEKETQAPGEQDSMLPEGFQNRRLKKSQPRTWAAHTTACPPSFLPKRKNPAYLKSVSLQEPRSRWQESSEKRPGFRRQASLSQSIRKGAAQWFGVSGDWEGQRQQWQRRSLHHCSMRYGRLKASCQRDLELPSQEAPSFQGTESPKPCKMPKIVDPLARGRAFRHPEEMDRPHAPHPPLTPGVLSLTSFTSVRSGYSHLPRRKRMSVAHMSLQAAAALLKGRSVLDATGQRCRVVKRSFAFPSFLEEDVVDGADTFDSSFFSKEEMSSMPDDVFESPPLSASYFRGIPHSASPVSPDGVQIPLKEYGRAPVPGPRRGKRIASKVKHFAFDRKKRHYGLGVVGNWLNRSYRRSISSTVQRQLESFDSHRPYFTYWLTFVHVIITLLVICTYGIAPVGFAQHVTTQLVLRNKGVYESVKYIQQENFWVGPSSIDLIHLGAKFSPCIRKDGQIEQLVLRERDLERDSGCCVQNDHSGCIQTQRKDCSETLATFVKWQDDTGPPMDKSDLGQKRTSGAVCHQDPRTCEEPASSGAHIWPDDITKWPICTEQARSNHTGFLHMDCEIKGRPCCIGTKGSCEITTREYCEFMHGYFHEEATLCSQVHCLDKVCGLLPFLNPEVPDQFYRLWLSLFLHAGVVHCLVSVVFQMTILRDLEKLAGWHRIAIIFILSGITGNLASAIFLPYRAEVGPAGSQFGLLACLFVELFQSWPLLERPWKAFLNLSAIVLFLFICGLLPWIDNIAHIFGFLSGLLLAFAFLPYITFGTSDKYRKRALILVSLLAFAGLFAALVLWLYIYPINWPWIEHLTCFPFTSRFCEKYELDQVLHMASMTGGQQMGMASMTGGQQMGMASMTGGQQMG
# B1: humanized antibody 16-B-07 (antibody, V domains shown)
# VH: QVTLRESGPALVKPTQTLTLTCTFSGFSLSTFALGVGWIRQPPGKALEWLAHIWWDEDKYYNPALKSRLTISKDTSKNQVVLTITNMDPVDTATYYCARITTYYYGMDYWGQGTLVTVSS
# VL: EIVMTQSPDFQSVTPKEKVTITCRASQSIGNHLHWYQQKPDASPKLLIKYASQSISGVPSRFSGSGSGTDFTLTINSLEAEDAATYFCQQSYQWPLTFGQGTKLEIK
# notes: Tested as whole humanized antibody produced in CHO cells and detected with anti-human IgG; the general methods speak of human IgG1/Kappa; also called clone 16-B-07
# B2: humanized antibody 16-B-03 (antibody, V domains shown)
# VH: B1 VH with E57D
# VL: B1 VL
# notes: Tested as whole humanized antibody produced in CHO cells and detected with anti-human IgG; the general methods speak of human IgG1/Kappa; also called clone 16-B-03
# B3: humanized antibody 16-B-05 (antibody, V domains shown)
# VH: B1 VH
# VL: B1 VL with Q93N
# notes: Tested as whole humanized antibody produced in CHO cells and detected with anti-human IgG; the general methods speak of human IgG1/Kappa; The printed LCVD reads SRESGSG where the printed cDNA encodes SRFSGSG; also called clone 16-B-05
# B4: humanized antibody 42-B-04 (antibody, V domains shown)
# VH: QVTLRESGPALVKPTQTLTLTCTFSGFSLSTFGRGVGWIRQPPGKALEWLAHIWWDDEKYYNSALKSRLTISKDTSKNQVVLTITNMDPVDTATYYCARIQNYGSNYWYFDVWGQGTLVTVSS
# VL: AIQLTQSPSSLSASVGDRVTITCRASSRISYMFWYQQKPGKAPKVLIYDTSNLASGVPSRFSGSGSGTDYTLTISSLQPEDFATYYCQQWNAYPLTFGQGTKLEIK
# notes: Tested as whole humanized antibody produced in CHO cells and detected with anti-human IgG; the general methods speak of human IgG1/Kappa; also called clone 42-B-04
# B5: humanized antibody 42-B-02 (antibody, V domains shown)
# VH: B4 VH
# VL: B4 VL with A92S
# notes: Tested as whole humanized antibody from transient expression of heavy chain/kappa light chain pairs in CHO cells, detected with anti-human IgG; the general methods speak of human IgG1/Kappa; also called clone 42-B-02
# B6: humanized antibody 23-B-04 (antibody, V domains shown)
# VH: B4 VH with R34M, Q101S, D111N
# VL: B4 VL with R28S, I29V, F33Y
# notes: Tested as whole humanized antibody produced in CHO cells and detected with anti-human IgG; the general methods speak of human IgG1/Kappa; also called clone 23-B-04
# Tests used:
# [1] = target: T1, human iRhom1 full length wild type …; assay: FACS on MEF-DKO-hiR1-FL-WT-T7 cells
# Description: In brief, in addition to immortalized MEF-DKO-EV control cells and MEF-DKO-hiR2-FL-WT-T7 cells (as already described in example 3), MEF-DKO-hiR1-FL-WT-T7 cells were harvested with 10 mM EDTA in PBS, washed and resuspended in FACS buffer (PBS, 3% FBS, 0.05% sodium azide), and seeded in Nunc U-bottom 96-well plates (Thermo Fisher Scientific, USA) at approximately 3×10⁵ cells per well. To pellet cells and remove supernatants, the plates were centrifuged at 1,500 rpm and 4° C. for 3 minutes. For primary staining, cells were resuspended in 100 μl per well of either FACS buffer alone (controls), mouse monoclonal anti-T7 IgG (Merck Millipore, USA) at 3 μg/ml FACS buffer or the humanized antibodies 16-B-03, 16-B-05, 16-B-07, 23-B-04, 42-B-02, 42-B-04 of the invention also at 3 μg/ml FACS buffer and incubated on ice for 1 hour. Afterwards, plates were centrifuged at 1,500 rpm and 4° C. for 3 minutes and washed twice with 200 μl per well of FACS buffer. For secondary staining of previous anti T7 staining, cells were spun down and resuspended in 100 μl per well of PE-conjugated goat anti-mouse IgG F(ab′)2 detection fragment (Dianova, Germany) diluted 1:100 in FACS buffer. For secondary staining of previous staining with humanized antibodies of invention, cells were spun down and resuspended in 100 μl per well of PE-conjugated goat anti-human IgG F(ab′)2 detection fragment (Dianova, Germany) diluted 1:100 in FACS buffer. Protected from light, the cell suspensions were incubated on ice for 1 hour. Plates were then centrifuged at 1,500 rpm and 4° C. for 3 minutes and washed three times with 200 μl per well of FACS buffer. Finally, cells were resuspended in 150 μl per well of FACS buffer and analyzed using a BD Accuri™ C6 Plus flow cytometer (Becton Dickinson, Germany).
# [2] = target: T2, human iRhom2 full length wild type …; assay: FACS Scatchard
Binder,binding result [1],Kd [2]
B1,no binding (tested: 3 µg/ml),0.99 nM
B2,no binding (tested: 3 µg/ml),0.67 nM
B3,no binding (tested: 3 µg/ml),1.07 nM
B4,no binding (tested: 3 µg/ml),0.48 nM
B5,no binding (tested: 3 µg/ml),0.5 nM
B6,no binding (tested: 3 µg/ml),0.58 nM
